Source: patent publication CN114773485A (JIANGSU SIMCERE PHARM CO LTD, dated 2022)
Several values for one entry are separate records, joined by “and”; a condition that tells them apart may be missing. Equal entries are not always repeated.

How the values were obtained:
[1] = molecular target: T1, 人PD-L1重组蛋白(Sino Biological,Cat.10084-H05H) (human, UniProt Q9NZQ7 19-239); assay: competition ELISA, human PD-L1 coated, blocks PD-1-His
T1 construct: also called 人PD-L1蛋白

[2] = molecular target: T2, 食蟹猴PD-L1蛋白(Cat.#90251-C08H，Sinobiological) (cynomolgus monkey, UniProt G7PSE7 19-239); assay: SPR, Biacore T200, antibody captured on Protein A chip, 25℃, 1:1 model
T2 construct: Bought protein used as analyte in Biacore; also called 食蟹猴PD-L1-His蛋白; 食蟹猴PD-L1重组蛋白; not shown: His tag
T2 sequence (G7PSE7 entry or part of it C08H C08H): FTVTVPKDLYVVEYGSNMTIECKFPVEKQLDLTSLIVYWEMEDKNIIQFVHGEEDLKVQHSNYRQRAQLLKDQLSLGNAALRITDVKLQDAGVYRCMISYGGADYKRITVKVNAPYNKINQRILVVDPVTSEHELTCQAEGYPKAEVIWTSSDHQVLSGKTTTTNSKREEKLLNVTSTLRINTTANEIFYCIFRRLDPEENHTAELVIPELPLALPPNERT

[3] = molecular target: T3, 重组人TGF-β1蛋白 (human, UniProt P01137 279-390); assay: bridging ELISA: TGF-β1 coated, test molecule, then PD-L1-His and anti-His-HRP
T3 construct: also called 重组人、食蟹猴TGF-β1(Cat.#10804-HNAC，Sinobiological); 人TGF-β1重组蛋白(Novoprotein,Cat.CA59)
T3 sequence (P01137 279-390 limits assumed): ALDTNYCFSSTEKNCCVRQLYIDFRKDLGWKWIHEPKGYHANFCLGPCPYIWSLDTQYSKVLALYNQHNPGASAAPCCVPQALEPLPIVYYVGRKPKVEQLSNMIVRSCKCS

[4] = molecular target: T4, PD-L1 on mature human dendritic cells (human, UniProt Q9NZQ7 19-290); assay: flow cytometry on mature human DC, anti-human IgG PE
T4 construct: whole, on cells; also called DC细胞表面PD-L1
T4 sequence (Q9NZQ7 19-290): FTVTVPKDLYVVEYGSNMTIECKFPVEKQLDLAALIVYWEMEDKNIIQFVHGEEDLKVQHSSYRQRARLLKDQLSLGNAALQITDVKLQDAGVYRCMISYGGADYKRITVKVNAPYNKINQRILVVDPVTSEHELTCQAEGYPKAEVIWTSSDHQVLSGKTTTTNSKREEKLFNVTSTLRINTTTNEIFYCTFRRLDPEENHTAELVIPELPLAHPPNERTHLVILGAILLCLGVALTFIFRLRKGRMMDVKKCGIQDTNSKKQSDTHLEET

[5] = molecular target: T5, PD-L1 on CHO-PD-L1 cells (UniProt Q9NZQ7 19-290, limits assumed); assay: flow cytometry on CHO-PD-L1 cells, anti-human IgG PE
T5 construct: whole, on cells; also called CHO-PD-L1细胞(南京勇山生物科技有限公司); 稳定转染PD-L1的CHO细胞株(GenScript，Cat.M00613)
T5 sequence (Q9NZQ7 19-290 limits assumed): as the sequence (Q9NZQ7 19-290) above

[6] = molecular target: T5, PD-L1 on CHO-PD-L1 cells; assay: cell-based or functional assay

T1 sequence (Q9NZQ7 19-239 limits assumed): as the sequence (G7PSE7 entry or part of it C08H C08H) above, with T33A, S34A, N62S, Q68R, R82Q, L173F, A185T, I192T, L215H counted along it

B1: 人源化抗PD-L1抗体156-BM12 (antibody, V domains shown)
VH: QVQLVQSGPELKKPGASVKISCKASGYTFTDYYMNWVRQAPGQSLEWIGDINPNNGDTSYNQKFKGRVTLTRDTSTSTVYMELRSLRSEDTAVYYCARSVMDYWGQGTLVTVSS
VL: EIVLTQSPALLSLSPGERVTLSCSASSSVNYVYWYQQKPGQAPRPLIYLTFNLASGIPARFSGSGSGTDFTLTISSLEPEDFAVYYCQQWSSNPLTFGGGTKVEIK
notes: also called PD-L1单抗156-BM12; 人源化PD-L1抗体
B1 was tested, and the IC50 [1] was 0.896 nM and 1.49 nM, the binding result [2] was “binds” and the binding result [3] was “no binding (tested: 4nM)”. For the same binder, the EC50 [4] was 0.405 nM, the EC50 [5] was 0.105 µg/mL and the “EC50, NFAT luciferase reporter (RLU), Jurkat-PD-1/CHO-PD-L1” value [6] was 341 ng/ml and 2.15 nM.
